We go through one substance from patent US20070196883A1, “ENZYME” (UNIVERSITY OF DUNDEE, priority 1999, published 2007).

In test [1] the target is T1, endogenous PDK1 associated with GST-PIF (Homo sapiens, UniProt O15530).
T1 construct: endogenous in cells; host or cells: 293 cells transfected with pEBG2T GST-PIF; endogenous PDK1 co-purified on glutathione-Sepharose
Briefly: Dissociation of endogenous PDK1 from purified GST-PIF by peptide. The test is classed as binding. Conditions: peptide 100 μM, GST-PIF purified from 293 cells. The text has this:
In contrast, a mutant peptide in which the residue corresponding to Asp978 was changed to Ala (termed “D978A-Region B peptide”) interacted with PDK1>fold 10-less strongly (FIG. 13).

For a further test, the target named is T2, His-PDK1 (Homo sapiens, UniProt O15530).
T2 construct: made in house; host or cells: Sf21 insect cells (baculovirus, pFASTBAC HTb)
T2 sequence (O15530 1-556): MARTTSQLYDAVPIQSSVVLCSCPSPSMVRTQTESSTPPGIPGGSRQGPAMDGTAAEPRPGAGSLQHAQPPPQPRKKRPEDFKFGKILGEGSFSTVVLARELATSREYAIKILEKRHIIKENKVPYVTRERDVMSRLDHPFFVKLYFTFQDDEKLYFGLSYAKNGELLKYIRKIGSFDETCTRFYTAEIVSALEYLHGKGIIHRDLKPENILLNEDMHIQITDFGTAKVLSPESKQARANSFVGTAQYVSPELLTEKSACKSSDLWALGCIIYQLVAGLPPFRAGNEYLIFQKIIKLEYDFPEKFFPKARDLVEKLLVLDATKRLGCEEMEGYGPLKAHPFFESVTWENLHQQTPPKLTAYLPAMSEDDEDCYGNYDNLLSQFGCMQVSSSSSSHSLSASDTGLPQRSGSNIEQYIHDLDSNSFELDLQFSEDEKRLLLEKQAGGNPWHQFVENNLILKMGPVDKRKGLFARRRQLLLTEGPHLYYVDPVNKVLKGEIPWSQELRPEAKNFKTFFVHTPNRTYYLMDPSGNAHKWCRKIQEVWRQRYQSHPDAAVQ
Put plainly: Conversion of His-PDK1 into a Ser473 PKBα kinase by synthetic peptide (P-Ser473 immunoblot). The test is classed as biochemical. Conditions: peptide at 20 µM, 3-phosphoinositide vesicles, MgATP. As for the experimental part:
FIG. 6. Conversion of PDK1 into an enzyme that can phosphorylate both Thr308 and Ser473 of PKB by addition of a synthetic peptide. […] After allowing to stand for 1 h at 4° C. GST-PKBα, MgATP and the indicated phospholipid vesicles containing 100 μM PtdCho, 100 μM PtdSer, and either 10 μM sn-1-stearoyl-2-arachidonoyl-D-PtdIns(3,4,5)P3 (1,2-SAD-PtdIns(3,4,5)P3), or sn-1,2 di-palmitoyl-D-PtdIns(3,4,5)P3 (C16-PtdIns(3,4,5)P3) or sn-1,2 di-palmitoyl-D-PtdIns(3,4)P2 (C16-PtdIns(3,4)P2) were added. After 1 h at 30° C., the reactions were terminated by making the solutions 1% in SDS, the samples were subjected to SDS/polyacylamide gel electrophoresis and immunoblotted using P-Ser473 antibody. Identical results were obtained in 2 separate experiments. […]
Phosphorylation of GST-PKBα by incubation with GST-PIF. In experiments in which the phosphorylation of PKBα was determined using the phospho-specific Ser473 PKBα antibodies, the incubations were identical to the Stage 1 described above except that the reactions were terminated by the addition of 1% (by mass) SDS and immunoblotting is carried out as described below. In experiments in which the sites of phosphorylation on PKBα are determined the incubations were identical to the Stage 1 described above except [γ^32P] […]
On the technique in general: In western blotting, separated proteins are transferred to a membrane and probed.

T1 sequence (Q16513 908-984 partner limits assumed, one chain of several): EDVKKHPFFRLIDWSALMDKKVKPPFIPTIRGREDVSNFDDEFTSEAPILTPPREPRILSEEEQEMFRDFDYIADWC

For the substance “D978A-Region B peptide: mutant peptide in which the residue corresponding to Asp978 was changed to Ala (REPRILSEEEQEMFRDFAYIADWC)”, the “dissociation of the endogenous PDK1 from GST-PIF” value in test [1] is on record as “incapable of inducing the dissociation”. For the same substance, in the test with His-PDK1, the “inducing His-PDK1 to phosphorylate PKBα at Ser473” value is reported as “far less effective”.
